Test: soluble on expression in E. coli; label from the status in PepcDB or PDB records

Row | Sequence | soluble on expression in E. coli
1 | MFYCRSGFEKECAGEIQDKATQLEVFGFPRLKNNTGYVLFECYQEGDADRLIREIKFNELIFARQMFAVAAEVSDLPKDDRISPILDALSDVDGVPCCGDIRIETPDTNEAKELLKFCRKFTVPMRQALRGKKMLTERDSNRIPVLHICFIAPGHCYVGYSYTNNNSQFFMGIPRLKFPADAPSRSTLKLEEAFHVFIPKEEWDDRLASGMWGVDLGACPGGWTYQLVKRSMFVHAIDNGMMAQSLMDTGQVKHHMVDGFKFEPPRKNVTWLICDMVEKPARVAHLMGEWLIKGWAKEALFNLKLPMKGRYDEVLQDIENLKDFLKKNGFQYKLQAKHLYHDREEITVHIQAISNISPH | not soluble
2 | MDKVIFYSNIRNLIFKKCSIQFLIINDTVAHKEQVAMREMNQLVNTEDSAWPIIQNWLKDATNHTELLPVNKDLAETALYQLQVTTKSPMGALVYGSGGLLIDNGLEHHHHHH | not soluble
3 | MGHHHHHHSHMLLPRGLDIKQEELGDLVDKEMAATSAAIETATARIEEMLSKSRAGDTGVKLEVNERILGCCTSLMQAIQVLIVASKDLQREIVESGRGTASPKEFYAKNSRWTEGLISASKAVGWGATVMVDAADLVVQGRGKFEELMVCSHEIAASTAQLVAASKVKADKDSPNLAQLQQASRGVNQATAGVVASTISGKSQIEETDNMDFSSMTLTQI | soluble
4 | MSLYTYIDLFAGPGGLCTGFKNAGFKPLIAVEMSDNTVKTYARNHEAEVYSLQELLENKGRLEEILNINTDNTCLIHGDIRLVDNDIIVEILQKKFKTNSVDVVAGGPPCESFSLAGKRIDGDERDDLFKNMLRIASISNSKFIFFENVPGLLTKKSNNIKVFDVIVEEFDNYGYNLASTDKNIIKCLAADYGVPQNRERVFLIGINKMYGENPYIYPEKTHGEGRKFEYISVSDALRYLPELNSGEGADIQQITYNFEEDFRKGKISEAVYNYLKFIAGKEGYIPPHIKESIDDGLIEIHKAVKHREKMINRMSYIKQGEGMKKAAERLINEGKEDIVRAYFPNKLYAARNRRLKANEPSFTVTSHCLDEMVHPYNNRGLTPREAARLQSFPDWYVFEGEYVKFHSDPQQDKYEQCGDAIPVLLVKALAEQLKIALNIVSERTSINEGHHHHHH | not soluble
5 | MSRTVIRAQPFFLQAAPGSREQLANPRGFTTFVLEASWSTGLRLDTYVTRGLGDPEQIMREEFQGQYVFWDTDEYLDLIRWMRHYNVSHPGRPTLRFVGNDLGYPGPEAFDQVTSYVTAHRPGVAERIATLYAGLRPARSASAGAWMGQQLTKDLASRRAEAARAERALTLLCASGRPRGSAGRAYNWAVQNATAVAQSFTGYAFPDEEFPERMRYRDQAMADNTAWWLAHTNGRILLASNNGHVAYTSDNPQEFPEPVGAFLRKKLGRKYVSVGLTFSEGSLNALPDFTAGQPQKYAVDPAPAGHNEHTLDQVRHRDFALDLRTAPPAARAWLDTARPTRSYGLYWSDQDPETALGRSYDIVIHLHRVEAARLWAFTSVKDGQSYRLEHHHHHH | not soluble
6 | MNIFNNVKKAEIHVHLEATITPSICKKFADRNNHEIPDDFFGSKYAYEWDDFYDFLKKYDIVTSVIHTPEDYYELTYEYLKECAANNVIYMEAMISSTHAKNKGMTYHSFIEGVYEASKKAEEDFGIVARYIMNGIRHLGPESVQNTAEEVLKNPHPCLVGFGLAGDELHFPPNLFVKTFDMLKEANFPITVHAGEWDGPENIRNAINLLHPTRLGHGVRSIEDPELVKEIIDKDIILETCPTSNIATKIYEDYESHPVKTLFNQGVKVTVNSDDPPFFMQLFQ | soluble
7 | MSLKMETGKLLMELSNLDGPSGYETNVVSYIKSVIEPFVDEAKTTRHGSLIGYKKGKGIGKLAFFAHVDEIGFVVSKVEGQFARLEPVGGVDPKVVYASKVRIYTKNGIERGVIGMLAPHLQDSESRKKVPTYDEIFVDLSLCERGVRVGDIAVIDQTAFETNGKVVGKALDNRASCGVLVKVLEFLKRYDHPWDVYVVFSVQEETGCLGALTGAYEINPDAAIVMDVTFASEPPFSDHIELGKGPVIGLGPVVDRNLVQKIIEIAKKHNVSLQEEAVGGRSGTETDFVQLVRNGVRTSLISIPLKYMHTPVEMVDPRDVEELARLLSLVAVELEVEGGSHHHHHH | soluble
8 | GAMGSGGGGEHQHGEEMMAAVPAPDAEGAAGFDEFPIGEDRDVGPLHVGGVYFQPVEMHPAPGAQPSKEEADCHIEADIHANEAGKDLGYGVGDFVPYLRVVAFLQKHGSEKVQKVMFAPMNAGDGPHYGANVKFEEGLGTYKVRFEIAAPSHDEYSLHIDEQTGVSGRFWSEPLVAEWDDFEWKGPQW | soluble
9 | MDHRSSSPFLQILPPDEVEKLLHSMKQAKEELETLGNGDESLFLCPQKITHCSTVSWKPNNVLAPALPKQNALNFNGNEQLSHENEAHSEIPSLLTFQEKGEEDTVEVTRDNYNEIDTVEDFRSIEPALENSPKILVDDSMEATQTFIEETNDFQNDTVHSLDGTLEIENRRLCLLGMLVEMKEICKSVKVDLLLNLIPDLAPVAVQACNSASSLSRKEAIYCLVYMVKQVGAEEMEKYLEPLTTAKRTLLQIYIDRSSKDDSK | not soluble
10 | MAHHHHHHMDGAYGMRTVLNSSRLEEEPKYTLNPADLPHSSMNANNMMNGAVLTNGYHTSDYVINRESYPPDMMPQFKIDQGGSAYNNTMPMNSIIHTDPNESINMQGMKTCLETTTGFDSYRNLMNYNNTQNTIQASQVPFHLDDYNSGADLMYMSHPHTGDNFSPDYLNNLRSTETDPMTYGNNFNIPNGQFNSMLGENNNYNSLPYSMPIFENMNNPQMYMQQMNSKQALSGPTQKMDHTCSIRKMPAVSKRKIKPKKFFPCC | soluble
11 | GSHMASMTGGQQMGRGSMKFSFELAVNTKKEDAWTYYSQVNQWFVWEGDLEQISLEGEFTTGQKGKMKMEDMPELAFTLVEVRENQCFSDLTATPFGNVLFEHEILENPDGTISLRHSVSLTDSDTTEEALAFLKQIFADVPESVGKLKQILETV | soluble
12 | VSIAQAQVVVSSKIDTEGGVLGNIILAVLNQNKIETTDRIQLGATPVVRKAITAGEIDIYPEYTGNAAFFFSKADDPLWKDAAKGYEEAKTLDYDANKIVWLAPSPANNTWAIALRKDVADKNNLKTLSDFGKYVAGGGTVVLAASSEFVNSAAALPAFQTTYGFTMKPDQLITLSGGDTAATIAAAANQTNNANAAMVYGTDGGIAPSGLVVLEDDKHVQPVYQPAPIIREEVLKKHPNIEELLKPVFEKLDLATLQDLNARVQVGGEQAKTVAMDFLTKNGFAK | soluble
13 | MTFHYPNGIPYNHHEAQSPKKQVKKKRPVEFGNRGMDFEEAINQSNQYYLLNKQAVVHKKPTPVQIVKVDYPKRSAAVIKEAYFRQASTTDYNGVYQGRYIDFEAKETKNTTSFPFKNFHQHQIDHMEQCIAQQGICFVLLWFSSLKRCFFFSGENLITHWKNQAVTGKKSMPLALIEKEGIELSFGIAPRIPYLDAVEQYIQTH | not soluble
14 | METMKSKANCAQNPNCNIMIFHPTKEEFNDFDKYIAYMESQGAHRAGLAKIIPPKEWKARETYDNISEILIATPLQQVASGRAGVFTQYHKKKKAMTVGEYRHLANSKKYQTPPHQNFEDLERKYWKNRIYNSPIYGADISGSLFDENTKQWNLGHLGTIQDLLEKECGVVIEGVNTPYLYFGMWKTTFAWHTEDMDLYSINYLHLGEPKTWYVVPPEHGQRLERLARELFPGSSRGCGAFLRHKVALISPTVLKENGIPFNRITQEAGEFMVTFPYGYHAGFNHGFNCAEAINFATPRWIDYGKMASQCSCGEARVTFSMDAFVRILQPERYDLWKRGQDRAVVDHMEPRVPA | soluble
15 | MGSDKIHHHHHHMKKFVCSNCGYVSPKWFGRCPQCGEYDTAEEVQRRKNREGSPSLFLNLEDAGEISLERLSTGFSELDRAFRGGIVPGQVILLSGEPGIGKSTIALQIAERFAERGLVVYVSGEESPQQLKLRADRLLLKRKKDILLTLENDIDEIISSLQNKRVSFMVVDSIQTVFSSDLGSSPGSISQVKNVTMKTIDFAKRRGVPVLLVGHVTKEGEIAGPKLVEHMVDTVAYFEGDRRTGLRLLKITKNRFGPSDEVAVFELKENGFVQVENPSFTEGDADLPGNVLTCVFEGTKPFVVQIQALVSKNRTFSPKRVCKGVDVNRVMLLIAVISKYLKLPIETHDVYVNVVGGLRVTDPAADLAIALSIVSSYLEVSLHNTAAVGEIGLDGRVRKVYNINRRLNSLKSSGRIIVPPIEEEQKGVFEVRDLKEAVSIIGGEILGTPGAD | not soluble
16 | MRGSHHHHHHTDPALRADIIFYHPTFDTQWWIEALRKAIPQARVRAWKSGDNDSADYALVWHPPVEMLAGRDLKAVFALGAGVDSILSKLQAHPEMLNPSVPLFRLEDTGMGEQMQEYAVSQVLHWFRRFDDYRIQQNSSHWQPLPEYHREDFTIGILGAGVLGSKVAQSLQTWRFPLRCWSRTRKSWPGVQSFAGREELSAFLSQCRVLINLLPNTPETVGIINQQLLEKLPDGAYLLNLARGVHVVEDDLLAALDSGKVKGAMLDVFNREPLPPESPLWQHPRVTITPHVAAITRPAEAVEYISRTIAQLEKGERVCGQVDRARGYGLCGR | soluble
17 | MSLDNESLLAILNNWSATNYAKGNYILREISSKFLAKISIDSNDYLLDAGCGDGSFTQMLANLVPDGYVLGLDRSKTMIDYANKHCRSINVRFDIGDIQEPIIYGPFDNILSFWCLHWTDLEKSLSNLYHVLKPGGKICAIFSSGKQSTLFEVLNSLQFQNLYPDVAKNVVQSKMMRENYSVQCRRALDNLPFKSISFVVEHCQVELPDLGLFENFIHGAPLFKDLPGKMYQDIVNGMVQFFDEYCKKKYGGKWVYETTPYFLTITREGHHHHHH | soluble
18 | MVKKLYIKTNGCQMNEYDSSKMAEVLYASHGLVKTDQVEDADVILLNTCSIREKAQEKVFSQLGQWREYKAKNPHVLIGVGGCVASQEGSDIIKRAPFVDIVFGPQTLHRLPALLNERLEKNKSVVDISFPEIEKFDHLPAPRAEGPTAFVSIMEGCSKYCSFCVVPYTRGEEISRPFDDVLAECYQLASQGVREINLLGQNVNDYRGIMDNGDIADLALLIHYIAAIDGIGRIRFTTSHPLAFSENLINAYAEVPELANHLHLPVQSGSDRILSLMKRGYTALEFKSKIRKLRKIRPDIRLSTDIIVGFPGETDKDFQDTMDLVHEIGFDTSFSFIYSPRPGTPAANLPDDTPMEIKKQRLQILQNRLLMNAARYSESMIGSKQKILVTGFSKKSSQQLSGRTECNRVVNFDGPPHLIGQFIDVQISDALPNSLRGRLLEKEMQPALEHHHHHH | soluble
19 | MGSMDQSIAVKSPLTYAEALANTIMNTYTVEELPPANRWHYHQGVFLCGVLRLWEATGEKRYFEYAKAYADLLIDDNGNLLFRRDELDAIQAGLILFPLYEQTKDERYVKAAKRLRSLYGTLNRTSEGGFWHKDGYPYQMWLDGLYMGGPFALKYANLKQETELFDQVVLQESLMRKHTKDAKTGLFYHAWDEAKKMPWANEETGCSPEFWARSIGWYVMSLADMIEELPKKHPNRHVWKNTLQDMIKSICRYQDKETGLWYQIVDKGDRSDNWLESSGSCLYMYAIAKGINKGYLDRAYETTLLKAYQGLIQHKTETSEDGAFLVKDICVGTSAGFYDYYVSRERSTNDLHGAGAFILAMTELEPLFRSAGK | soluble
20 | MEFRVYAGREELAGLVKPMRGGDVEIRIQPVERKVLEFVPLKAETAIEERKSIIVGLDPGITVGIAAIDLDGNIISVYSEKNMALSEIVRFISELGHPIIVATDVNPAPGLVEKIARSFKAQLFVPRESLKVEEKNELLKNLGISVSDDHQRDALEHHHHHH | not soluble
21 | MAKMRRYPAVAGQFYPEGDALIEMLSSFFKDLGEEGTKRTITAGVAPHAGYVFSGFTASRTYKAIYEDGLPEVFVIFGPNHTGLGSPIALYPEGEWITPMGSIKVDSKFAKEIVKRSGIADLDDLAHKYEHSIEVQLPFIQYIAEKAGVEVKIVPITLGIQDEEVSRSLGRSIFEASTSLGRDTIIIASTDFMHYGSFYGYVPFRGRPEELPNMVRDWDMRIIRRILDFDLDGMFSEIREMNHTMCGPGGVGAGIIYSRLMKAKEAELLHYTTSFEVSRSPDAIVGYASIIMKRLEHHHHHH | not soluble
